Measurements: paper PMC7704405, “Monoclonal Anti-AMP Antibodies Are Sensitive and Valuable Tools for Detecting Patterns of AMPylation” (iScience, 2020)

Target: T1, endogenous AMPylated BiP of CHO-K1 cells (Cricetulus griseus (CHO-K1), UniProt G3I8R9, AMP (threonine 518 is the site the paper names for BiP modified by FICD))
T1 construct: ER chaperone BiP/Grp-78, endogenous in CHO-K1 cells; also called endogenous BiP-AMP; source: endogenous, CHO-K1 lysate (untreated or treated with CHX 4 h); also after methanol/chloroform precipitation (denatured)
Test: western blot; 20 μg total cell lysate (HEK293, CHO-K1; untreated, TG 2 h or CHX 4 h; in Figure 4A HEK293 lysate spiked with a titration of recombinant BiP-AMP) on the blot, probed with 17G6 in the presence of MnCl2
Details: one partner purified

T1 sequence (G3I8R9 19-654): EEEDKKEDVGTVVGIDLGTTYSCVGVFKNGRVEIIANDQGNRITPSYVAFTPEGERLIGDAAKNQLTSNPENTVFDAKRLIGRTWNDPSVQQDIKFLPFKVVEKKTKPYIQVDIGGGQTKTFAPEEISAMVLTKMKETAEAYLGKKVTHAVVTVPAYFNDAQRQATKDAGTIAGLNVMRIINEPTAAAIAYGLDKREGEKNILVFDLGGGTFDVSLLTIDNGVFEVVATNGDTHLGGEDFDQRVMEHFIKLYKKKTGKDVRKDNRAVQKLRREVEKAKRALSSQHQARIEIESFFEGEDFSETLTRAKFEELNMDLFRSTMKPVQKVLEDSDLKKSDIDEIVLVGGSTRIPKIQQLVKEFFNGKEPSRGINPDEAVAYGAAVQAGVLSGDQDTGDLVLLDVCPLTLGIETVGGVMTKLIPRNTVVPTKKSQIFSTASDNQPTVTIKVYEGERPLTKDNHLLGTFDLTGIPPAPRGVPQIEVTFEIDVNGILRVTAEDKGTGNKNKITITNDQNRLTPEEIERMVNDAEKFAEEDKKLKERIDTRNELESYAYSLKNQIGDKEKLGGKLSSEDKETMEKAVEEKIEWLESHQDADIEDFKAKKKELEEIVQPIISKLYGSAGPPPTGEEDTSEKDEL

binding result: binds
B1: monoclonal anti-AMP antibody 17G6 (antibody, V domains shown)
VH: EVQLQQSGPELVKPGASVKISCKASGYTFTDYYLNWVKQSHGKSLEWIGDIHPNKGINKYNQKFKGKATLTVDKSSSTAYMELRSLTSEDSAVYYCARYYGKRYFDVWGTGTMVTVSS
VL: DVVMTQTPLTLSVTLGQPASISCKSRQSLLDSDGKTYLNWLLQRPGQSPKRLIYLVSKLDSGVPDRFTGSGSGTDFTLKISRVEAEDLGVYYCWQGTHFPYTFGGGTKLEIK
notes: Recognises the AMP moiety on modified side chains; no preference for Thr or Tyr; source: mouse hybridoma (C57BL/6, BSA-hapten immunogen); roller bottle cell culture, purified from the supernatant (Protein A); clone supernatant in the selection ELISA
